Reference: article PMC10864337

Columns and labels:
[1] = target: Drp1 Y493A (isoform 1) (human) (UniProt O00429); assay: SEC-MALS; 5 µM Drp1 injected onto a Superose 6 10/300GL column
[2] = target: Drp1 Y493A (isoform 1) (human) (UniProt O00429)

A stoichiometry N [1] of 2 and a GTPase activity (malachite green) with cardiolipin-containing nanotubes; not stimulated [2] of 1.2 min⁻¹ were found for “Drp1 Y493A (isoform 1) (from UniProt O00429-1 1-736) (natural protein)” in this work.
